Test system: MS2 coat protein
Test: apparent KD of MS2 coat protein; designed switch direction (-1 OFF switch, 1 ON switch): -1; higher = weaker reporter binding
Procedure, shortened: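 The apparent KD reported per design is the median over clusters of curve fits to normalised cluster fluorescence. The RNA switches were transcribed on Illumina chips by stalled E. coli RNA polymerase. SNAP-549-labelled MS2 coat protein was titrated from 0.7 or 1.5 nM, doubling up to 3 µM, in Tris-HCl pH 7.5 buffer containing KCl, MgCl2, BSA, DTT, tRNA and Tween-20, with no input, 200 uM small-molecule ligand, or an oligonucleotide input.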

[1] = input ligand: microRNA oligo, concentration not stated
[2] = Eterna round: R95, input ligand: microRNA oligo, concentration not stated
[3] = Eterna round: R95, input ligand: FMN 200 uM
[4] = Eterna round: R95, input ligand: none

Sequence	apparent KD of MS2 coat protein (input ligand: FMN 200 uM)	apparent KD of MS2 coat protein [1]	apparent KD of MS2 coat protein (input ligand: none)	apparent KD of MS2 coat protein [2]	apparent KD of MS2 coat protein [3]	apparent KD of MS2 coat protein [4]
UACAUGAGGAUCACCCAUGUUUUGUCGUGUAUGGUAUUUAUCUAGGAUAUCAAUUUAGUUACUUAUGAGAAGGAGAAUAUUAAU [JMF's solution 77] (Eterna round: R96, puzzle: Exclusion NG 3)	33.8 nM	22.3 nM	38.7 nM			
UAUAUAUAGUAAGGAUAUGUAUUUAUAUUAUAAACAGAAGGUACUGACAUGAGGAUCACCCAUGUUUUAGUGUGGGCAUGUAGA [JMF's solution 15] (Eterna round: R96, puzzle: Exclusion NG 1)		66.6 nM				
UCGCUGCGAGGAUAUACGUGCGCGCGCGCGCGCGCGCGCGUACAUGAGGAUCACCCAUGUAGAAGGCGCUCUGC [Apr-15 SS2-2] (puzzle: Exclusion 2)				22.9 nM		
GAUUAUGCGAGCUUUAGGGACAUGAGGAUCACCCAUGUUCGUCUUAUUAGUCUAGGUGCGCUAACAUACCUAAAUCU [JMF 50] (puzzle: Sensor v3, turn-off variant 1)				35.4 nM	20.7 nM	21.6 nM
UAAGAUUACCGAGGAUAUGGUAGUACAUAUUAACCAGAAGGCGGACUCAACAUGAGGAUCACCCAUGUAUAAAGGGUAUUAGGU [JR_ExcNG1_Sub042] (Eterna round: R96, puzzle: Exclusion NG 1)	84.7 nM	60.3 nM	60.3 nM			
CCAGGCGUCUUGGCUCGUCUUAUUUGGAGAGGAUUGAUAACAUGAGGAUCACCCAUGUGUGUGGGAGAGUUGCAGUG [JR_SV3TOV2_Sub018] (puzzle: Sensor v3, turn-off variant 2)				425 nM	335 nM	374 nM
GGGUGACAUGAGGAUCACCCAUGUCAGGAUAUGAUACUAUGUACUUCGGUACAUAGUAUCAGAAGGGACAUCAU [Ex1-3: 14] (Eterna round: R96, puzzle: Exclusion 1)	112 nM	253 nM	424 nM			
GAGAAAUUAUAGGAUAUCGAAAGUAUAAUUUAACGAGAAGGAUGAACAUGAGGAUCACCCAUGUGGUAUCAUGG [JL-ex6-3.10] (puzzle: Exclusion 6)				88.2 nM	283 nM	297 nM
GGGCGCUUAGGAUAUACAUGAGGAUCACCCAUGUGGCUCUCCACGUUGCAUAACAUUCGUAGAAGGAAGCGCAU [Eternabot (L1) Solution 69] (Eterna round: R97, puzzle: Exclusion 3)	252 nM		35.8 nM			
UUUAAUUUUUUUUUUUUACAAGCUUUUUGCUCGUCUUAUACAUGAGGAUCACCCAUGUGAAUGGAGGAUAAAUUAUC [JMF 30] (puzzle: Sensor v3, turn-off variant 2)				33.1 nM	29.5 nM	26 nM
CCCAGUUAGUGAGGAUAUCCUACAUGAGGAUCACCCAUGUAAUAAAUGAGGAUUUCGGGUGUCUAGGAGAAGGCACGGAUAGGC [Ostracism 24 - Jieux - Exclusion NG 2] (Eterna round: R96, puzzle: Exclusion NG 2)	79.3 nM	36 nM	44.8 nM			
AAGAAACAUGAGGAUCACCCAUGUGAGGAUAUGCAAGAAAGAAAGAAAGAAAGAAGAAGCAGAAGGCACAAAGG [Gaius Turranius] (Eterna round: R96, puzzle: Exclusion 1)	84.7 nM	29.7 nM	50.7 nM			

From the supplement of paper PMC9170038
